Data published in paper PMC6245143, “Small-animal SPECT/CT imaging of cancer xenografts and pulmonary fibrosis using a ^99mTc-labeled integrin αvβ6-targeting cyclic peptide with improved in vivo stability” (Biophysics Reports, 2018).
Read-outs that look alike come from different tables or passages of the source. Where a SMILES comes first, the peptide text is derived from it. Bridges are numbered along the chain shown (N, C = ends). Where no end group is shown, it is not given here. The star is where a group is joined. HYNIC = NNc1ccc(C(=O)*)cn1

Legend:
[1] = mouse; cited from earlier work
Description: Due to the critical role of integrin αvβ6 in tumorigenesis and fibrogenesis, it has emerged as an appealing target for diagnostic imaging, prognosis evaluation, and therapeutic responses monitoring (Agarwal [2014]; Cantor et al. [2015]; Saini et al. [2015]; Yang et al. [2015]). Therefore, noninvasive and quantitative imaging of integrin αvβ6 expression by molecular imaging techniques would be of great potential for better management of these diseases. Previous studies have focused on the development of positron emission tomography (PET) and single-photon emission computed tomography (SPECT) ra ...

[2] = Biodistribution in BxPC-3 tumor-bearing nude mice; conditions: female, BALB/c nude, in vivo, iv, total radioactivity; for tissue uptake at 1 h: 1 h after injection
Protocol: (§1) All animal experiments were performed in accordance with the guidelines of Peking University Animal Care and Use Committee. To establish the BxPC-3 subcutaneous tumor model, BxPC-3 cells (1 × 10^7 in 100 μl of PBS) were inoculated subcutaneously into the right front flanks of female BALB/c nude mice. The animals were used for in vivo studies when the tumor size reached 200–300 mm^3 (3–4 weeks after inoculation). For the pulmonary fibrosis mouse model, BLM (1.5 units/kg, 50 μl in PBS) or PBS (50 μl; as a vehicle control) was administered once into the C57/BL6 mice by intratracheal injection. On day 21 (based on pilot studies), the mice with well-established pulmonary fibrosis were used for SPECT/CT imaging.
Biodistribution studies were performed using female BALB/c nude mice bearing BxPC-3 xenografts. Mice received an injection via the tail vein of 370 kBq (10 μCi) of ^99mTc–HYNIC–cHK to evaluate the distribution of the radiotracer. The blocking experiments were also performed by coinjection of ^99mTc–HYNIC–cHK with a saturating dose of the HK peptide (500 μg per mouse). At 0.5, 1, and 2 h after injection, the animals were sacrificed, and the tumors and the organs/tissues of interest were dissected and wet-weighed, and the radioactivity in the tissue was measured using a γ-counter. The results are presented as percentages of injected dose per gram of tissue (%ID/g). Values are expressed as mean ± SD (n = 4 per group).

BxPC-3 tumors = assay: Small-animal SPECT/CT imaging of BxPC-3 cancer xenografts; type: in vivo, BALB/c nude mice; conditions: BxPC-3 tumor-bearing mice, 37 MBq i.v., blocking dose of cold HK peptide, P < 0.001
Protocol: as §1
(§2) Small-animal SPECT/CT scans of subcutaneous BxPC-3 tumor and pulmonary fibrosis mouse models were performed using a SPECT/CT system (NanoScan; Mediso, Budapest, Hungary). Each BxPC-3-bearing mouse was injected via tail vein with 37 MBq (1 mCi) of ^99mTc–HYNIC–cHK. At 0.5 h and 1 h after injection, the mice were anesthetized by inhalation of 2% isoflurane and imaged using the Nano-SPECT/CT camera, The SPECT and CT fusion images were obtained using the automatic fusion software (InterView Fusion; Mediso Medical Imaging Systems, Budapest, Hungary).

[3] = 37 °C, 0, 0.5, 1, 2 and 4 h, radio-HPLC
Protocol: The in vitro solution stability of ^99mTc–HYNIC–cHK in fetal bovine serum (FBS) or L-cysteine was monitored by radio-HPLC.
^99mTc–HYNIC–cHK was incubated in FBS or L-cysteine (1.0 mg/mL) for 0, 0.5, 1, 2, and 4 h at 37 °C to test the in vitro solution stability. After passing through a 0.22-μm Millipore filter, the samples were analyzed by radio-HPLC.

[4] = for degree of metabolism in blood: mouse blood, 1 mCi i.v.
Protocol: We performed the metabolism studies of ^99mTc–HYNIC–cHK using normal BALB/c mice. We analyzed the samples from both blood and urine to determine whether the radiotracer retains its chemical integrity at 0.5 h and 1 h postinjection.
The metabolic stability of ^99mTc–HYNIC–cHK was evaluated in female BALB/c normal mice. Each mouse was administered with the radiotracer at a dose of 1 mCi in 100 μl saline via intravenous injection. At 0.5 h and 1 h postinjection, the blood and urine samples were collected. The samples were centrifuged at 8000 r/min for 15 min. The supernatant was collected, filtered through a 0.22-μm Millipore filter, and then analyzed by radio-HPLC.

[5] = system: bleomycin-induced fibrotic lungs; assay: SPECT/CT imaging of bleomycin-induced pulmonary fibrosis; type: in vivo; conditions: C57/BL6 mice, 0.5 h after injection
Protocol: as §1, §2
Each BLM- or PBS-treated mouse was administered with 37 MBq of ^99mTc–HYNIC–cHK via tail vein. […]

[6] = molecular target: T1, integrin αvβ6-positive BxPC-3 cells (Homo sapiens, UniProt P06756+P18564); assay: Binding of ^99mTc–HYNIC–cHK to BxPC-3 cells, without or with cold peptide blocking; type: cell-based; conditions: 4 °C, 4 h
T1 construct: host or cells: BxPC-3 human pancreatic cancer cells
T1 sequence (P06756 31-889 limits assumed): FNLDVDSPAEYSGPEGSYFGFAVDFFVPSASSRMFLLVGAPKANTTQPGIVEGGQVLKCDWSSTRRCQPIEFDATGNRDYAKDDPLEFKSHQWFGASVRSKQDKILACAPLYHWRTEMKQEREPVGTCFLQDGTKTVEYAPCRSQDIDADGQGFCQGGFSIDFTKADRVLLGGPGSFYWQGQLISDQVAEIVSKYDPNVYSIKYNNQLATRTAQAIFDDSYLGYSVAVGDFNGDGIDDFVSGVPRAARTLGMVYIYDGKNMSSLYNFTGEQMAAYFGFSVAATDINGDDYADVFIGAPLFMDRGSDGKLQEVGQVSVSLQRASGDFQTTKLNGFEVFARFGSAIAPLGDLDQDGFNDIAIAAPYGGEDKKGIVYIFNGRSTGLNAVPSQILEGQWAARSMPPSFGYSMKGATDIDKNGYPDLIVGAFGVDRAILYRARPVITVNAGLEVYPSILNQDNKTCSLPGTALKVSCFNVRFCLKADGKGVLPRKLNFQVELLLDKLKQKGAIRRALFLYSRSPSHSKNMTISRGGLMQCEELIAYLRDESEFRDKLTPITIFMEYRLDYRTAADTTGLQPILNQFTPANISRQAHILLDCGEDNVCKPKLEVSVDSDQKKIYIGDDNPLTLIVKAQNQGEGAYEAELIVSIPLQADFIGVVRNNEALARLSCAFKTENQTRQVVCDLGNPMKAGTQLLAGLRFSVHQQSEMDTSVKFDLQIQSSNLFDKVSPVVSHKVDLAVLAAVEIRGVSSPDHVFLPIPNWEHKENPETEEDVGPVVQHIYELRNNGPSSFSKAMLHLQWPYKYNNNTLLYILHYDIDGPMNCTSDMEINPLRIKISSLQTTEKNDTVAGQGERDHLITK
T1 sequence (P06756 891-1048 partner limits assumed): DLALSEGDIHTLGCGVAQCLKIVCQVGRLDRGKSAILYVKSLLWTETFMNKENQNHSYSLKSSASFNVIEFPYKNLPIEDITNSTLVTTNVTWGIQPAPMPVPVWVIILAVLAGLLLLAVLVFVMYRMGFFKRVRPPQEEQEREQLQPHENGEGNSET
T1 sequence (P18564 22-788): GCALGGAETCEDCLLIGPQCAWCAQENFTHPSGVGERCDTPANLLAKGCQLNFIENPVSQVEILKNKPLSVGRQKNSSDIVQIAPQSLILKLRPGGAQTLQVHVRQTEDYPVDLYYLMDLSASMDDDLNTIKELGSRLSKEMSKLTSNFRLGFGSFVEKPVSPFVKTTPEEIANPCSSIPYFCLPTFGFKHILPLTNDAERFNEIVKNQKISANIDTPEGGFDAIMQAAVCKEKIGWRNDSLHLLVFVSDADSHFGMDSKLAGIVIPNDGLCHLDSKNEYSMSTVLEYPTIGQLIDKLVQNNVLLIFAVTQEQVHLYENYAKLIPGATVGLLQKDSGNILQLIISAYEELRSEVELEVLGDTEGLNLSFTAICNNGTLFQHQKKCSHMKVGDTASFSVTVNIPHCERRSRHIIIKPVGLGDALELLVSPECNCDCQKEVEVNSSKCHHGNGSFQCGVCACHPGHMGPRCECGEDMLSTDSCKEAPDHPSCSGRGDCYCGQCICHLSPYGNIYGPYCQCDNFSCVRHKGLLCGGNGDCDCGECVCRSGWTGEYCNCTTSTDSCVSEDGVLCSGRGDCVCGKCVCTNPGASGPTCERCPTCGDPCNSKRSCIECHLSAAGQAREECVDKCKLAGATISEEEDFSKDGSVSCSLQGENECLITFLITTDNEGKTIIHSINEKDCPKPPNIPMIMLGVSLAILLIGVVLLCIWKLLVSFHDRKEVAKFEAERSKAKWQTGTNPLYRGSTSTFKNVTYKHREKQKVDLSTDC
Protocol: The binding specificity of ^99mTc–HYNIC–cHK to integrin αvβ6 was evaluated in integrin αvβ6-positive BxPC-3 cells.
In vitro integrin αvβ6 binding specificity of ^99mTc–HYNIC–cHK was tested using the integrin αvβ6-positive BxPC-3 cells. Briefly, cells were seeded into 12-well plates and incubated overnight at 37 °C to allow adherence. After brief washing with PBS, tumor cells were incubated with 3.7 kBq ^99mTc–HYNIC–cHK with or without an excess dose of cold cHK or HK peptide at 4 °C for 4 h. Tumor cells were then washed with chilled PBS and harvested by trypsinization with 0.05% trypsin. The cell suspensions were collected and measured in a γ-counter (Wallac 1470-002, Perkin-Elmer, Finland). The cell uptake was expressed as the percent added dose (%AD). Experiments were performed twice with triplicate samples.

[7] = molecular target: T2, integrin αvβ6 on BxPC-3 cells (Homo sapiens, UniProt P06756+P18564); assay: Displacement cell-binding assay with ^125I–HYK as radioligand
T2 construct: Experiments were performed on high integrin αvβ6-expressing BxPC-3 cells; host or cells: BxPC-3 human pancreatic cancer cells
T2 sequence (P06756 31-889 limits assumed): as the sequence (P06756 31-889 limits assumed) above
T2 sequence (P06756 891-1048 partner limits assumed): as the sequence (P06756 891-1048 partner limits assumed) above
T2 sequence (P18564 22-788): as the sequence (P18564 22-788) above
Protocol: In vitro integrin αvβ6 binding affinities of cHK and HK were compared via displacement cell-binding assays (Dong et al. [2015]) using ^125I–HYK as the radioligand. ^125I–HYK was prepared by labeling HYK with Na^125I using the Iodogen method as previously reported (Liu et al. [2010]). Experiments were performed on high integrin αvβ6-expressing BxPC-3 cells. The best-fit 50% inhibitory concentration (IC50) values were calculated by fitting the data with nonlinear regression using Graph-Pad Prism (GraphPad Software, Inc.).

CC(C)C[C@H](NC(=O)[C@H](CC(=O)O)NC(=O)CNC(=O)[C@@H](N)CCCNC(=N)N)C(=O)N[C@@H](C)C(=O)N[C@H](C(=O)N[C@@H](CC(C)C)C(=O)N[C@@H](CCCNC(=N)N)C(=O)N[C@@H](CCC(N)=O)C(=O)N[C@@H](CC(C)C)C(=O)N[C@@H](C)C(=O)N[C@@H](CCC(N)=O)C(=O)N[C@@H](CCC(=O)O)C(=O)N[C@@H](CC(=O)O)C(=O)NCC(=O)N[C@H](C(=O)N[C@H](C(=O)NCC(=O)N[C@H](C(=O)N[C@@H](CCCNC(=N)N)C(=O)N[C@@H](CCCCNC(=O)c1ccc(NN)nc1)C(=O)O)C(C)C)C(C)C)C(C)C)[C@@H](C)O [^99mTc–HYNIC–HK, metal not drawn, reference compound] (H-RGDLATLRQLAQEDGVVGVRK(HYNIC)-OH; N-terminus and C-terminus assumed)
time to complete degradation in vivo after injection [1]: ≤ 30 min
tissue to tissue ratio at 0.5 h ([2]; mouse, 370 kBq): 1.82 ± 0.27
tissue uptake at 0.5 h ([2]; mouse, 370 kBq): 0.58 ± 0.09 %ID/g

CC(C)C[C@@H]1NC(=O)[C@H](CC(=O)O)NC(=O)CNC(=O)[C@H](CCCNC(=N)N)NC(=O)[C@@H](N)CSSC[C@@H](C(=O)O)NC(=O)[C@H](CCCCNC(=O)c2ccc(NN)nc2)NC(=O)[C@H](CC(C)C)NC(=O)[C@H]([C@@H](C)O)NC(=O)[C@H](C)NC1=O [^99mTc–HYNIC–cHK, metal not drawn] (H-CRGDLATLK(HYNIC)C-OH; disulfide 1-10)
tumor uptake in the HK blocking group (SPECT) (BxPC-3 tumors): almost completely inhibited
time remaining stable in the presence of L-cysteine ([3]; L-cysteine 1.0 mg/mL): more than 4 h
time remaining stable in FBS ([3]; fetal bovine serum): more than 4 h
in vivo stability compared to ^99mTc–HYNIC–HK ([4]; comparison with linear peptide-based radiotracer (Liu et al. [2014b])): much more stable in vivo
degree of metabolism in blood ([4]; 0.5 h postinjection, radio-HPLC): 9.94%
degree of metabolism in blood ([4]; 1 h postinjection, radio-HPLC): 30.09%
chemical integrity in urine ([4]; mouse urine, 0.5 h and 1 h postinjection, radio-HPLC): retained its integrity
lung uptake in PBS-treated mice (SPECT/CT) ([5]; PBS control, 37 MBq i.v.): no significant uptake
lung uptake in BLM-treated mice (SPECT/CT) ([5]; bleomycin 1.5 units/kg intratracheal, day 21, 37 MBq i.v.): evident accumulation
tissue uptake at 1 h ([2]; BxPC-3 tumors, blocking with HK peptide 500 μg per mouse, n = 4, read-out: tumor uptake with coinjection of cold HK peptide): 0.24 ± 0.04 %ID/g
tissue to tissue ratio at 0.5 h ([2]; mouse, 370 kBq, BxPC-3 tumor-bearing nude mice, 0.5 h after injection, n = 4, read-out: tumor-to-muscle (T/M) ratio): 2.99 ± 0.87
tissue uptake at 1 h ([2]; mouse, 370 kBq, BxPC-3 tumors, mean ± SD, n = 4, read-out: tumor uptake): 0.43 ± 0.09 %ID/g
tissue uptake at 2 h ([2]; mouse, 370 kBq, BxPC-3 tumors, 2 h after injection, mean ± SD, n = 4): 0.33 ± 0.16 %ID/g
tissue uptake at 0.5 h ([2]; mouse, BxPC-3 tumors, 0.5 h after injection, 370 kBq i.v., mean ± SD, n = 4, read-out: tumor uptake): 0.63 ± 0.18 %ID/g
binding of ^99mTc–HYNIC–cHK to BxPC-3 cells (cell uptake) ([6]; with excess cold HK peptide (300 μg) blocking): 0.06 ± 0.007 %AD
binding of ^99mTc–HYNIC–cHK to BxPC-3 cells (cell uptake) ([6]; with excess cold cHK peptide (300 μg) blocking): 0.03 ± 0.005 %AD
binding of ^99mTc–HYNIC–cHK to BxPC-3 cells (cell uptake) ([6]; without blocking, 3.7 kBq tracer, γ-counter, twice with triplicate samples): 0.79 ± 0.01 %AD

CC(C)C[C@@H]1NC(=O)[C@H](CC(=O)O)NC(=O)CNC(=O)[C@H](CCCNC(=N)N)NC(=O)[C@@H](N)CSSC[C@@H](C(=O)O)NC(=O)[C@H](CCCCN)NC(=O)[C@H](CC(C)C)NC(=O)[C@H]([C@@H](C)O)NC(=O)[C@H](C)NC1=O [cHK] (H-CRGDLATLKC-OH; disulfide 1-10)
IC50 [7]: 20.3 ± 1.17 nM

RGDLATLRQLAQEDGVVGVRK [HK, reference compound]
IC50 ([7]; displacement cell-binding assay, BxPC-3 cells, nonlinear regression fit, read-out: IC50, inhibition of ^125I–HYK binding to integrin αvβ6 on BxPC-3 cells): 3.55 ± 0.09 nM
